Experimental data as given in patent US20200283729A1.

Columns and labels:
[1] = biological target: Folate receptor alpha on cells (SKOV3, A1847, T47D, 293T, IOSE6) (human) (UniProt P15328); test: cell-based or functional assay
[2] = biological target: biotin-labeled recombinant FRa protein (R&D Systems, Inc) (UniProt P15328); test: flow cytometry; transduced primary human T cells stained with biotin-labeled recombinant FRA protein, then SA-PE; plotted against CD8
[3] = biological target: Recombinant mesothelin-extracellular domain protein on beads (UniProt Q13421); test: cell-based or functional assay
CD19-BBZ CAR on T cells = test: flow cytometry; T cells one day after CD19-BBZ CAR mRNA electroporation, stained with anti-mouse IgG Fab antibody

biotin-labeled recombinant FRa protein (R&D Systems, Inc), sequence (P15328 25-233 limits assumed): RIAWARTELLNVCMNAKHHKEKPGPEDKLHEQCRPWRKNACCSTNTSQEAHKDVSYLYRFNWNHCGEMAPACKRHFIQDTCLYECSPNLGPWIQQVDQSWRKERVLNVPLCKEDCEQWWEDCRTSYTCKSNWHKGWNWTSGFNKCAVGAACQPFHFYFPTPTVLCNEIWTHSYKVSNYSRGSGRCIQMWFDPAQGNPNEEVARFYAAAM
Recombinant mesothelin-extracellular domain protein on beads, sequence (Q13421 other isoform, or with tags, fused parts or gaps limits assumed): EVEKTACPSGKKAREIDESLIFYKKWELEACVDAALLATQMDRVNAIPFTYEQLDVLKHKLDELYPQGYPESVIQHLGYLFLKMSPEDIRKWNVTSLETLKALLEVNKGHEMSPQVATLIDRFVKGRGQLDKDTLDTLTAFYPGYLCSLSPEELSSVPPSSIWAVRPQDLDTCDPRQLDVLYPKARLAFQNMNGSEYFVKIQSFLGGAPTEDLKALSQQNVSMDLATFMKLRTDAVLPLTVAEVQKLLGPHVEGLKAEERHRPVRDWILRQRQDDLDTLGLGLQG
Folate receptor alpha on cells (SKOV3, A1847, T47D, 293T, IOSE6) (human), sequence (P15328 25-234, stated change not applied): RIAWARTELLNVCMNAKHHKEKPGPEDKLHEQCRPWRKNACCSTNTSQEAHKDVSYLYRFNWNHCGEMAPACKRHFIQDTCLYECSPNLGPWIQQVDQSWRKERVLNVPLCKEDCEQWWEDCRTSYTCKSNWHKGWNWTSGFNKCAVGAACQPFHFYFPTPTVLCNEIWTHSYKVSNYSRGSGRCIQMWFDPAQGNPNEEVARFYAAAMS

With MOv19-27z CAR on human T cells the surface CAR expression after exposure to SKOV3 cells [1] was 1 % of T cells, the percent of cells CD8+ and FRA CAR+ (upper right quadrant) [2] was 41.2% and the percent of cells CD8- and FRA CAR+ (lower right quadrant) [2] was 31.3%.
Work on “anti-mesothelin CAR (mesoCAR, SS1 BBZ) on wild-type mouse T cells” yielded a % IFN-γ cytokine-producing cells after 6 hours with coated beads (flow cytometry) [3] of 7%.
In the case of “anti-mouse IgG Fab antibody (detection reagent for the 19BBZ panel)”, the percent of cells in the CAR-positive gate (CD19-BBZ CAR on T cells) is reported as 98.5.
